Columns and labels:
Assay type in all cases: biochemical
[1] = Metabolism of epothilone B by P450 aluC09 and mutants; conditions: percent of substrate being converted; 0.125 mg/ml, 27° C., 16-20 hours; [CYP] per enzyme as in Table 8
Method in brief: (§1)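 Lyophilised P450 aluC09 mutants with ferredoxin aluF03 and reductase SCF15A converted 0.125 mg/ml substrate in 50 mM potassium phosphate pH 7.4, 5 mM MgCl2, with G6P/NADP/G6PDH cofactor regeneration, for 16-20 h at 27° C with shaking. Acetonitrile-quenched mixtures were analysed by UPLC-MS for conversion.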

[2] = Metabolism of BIRB796 by P450 aluC09 and mutants; conditions: percent of substrate being converted; 0.125 mg/ml, 27° C., 16-20 hours; [CYP] per enzyme as in Table 8
Method in brief: as §1

[3] = Metabolism of buparvaquone by P450 aluC09 and mutants; conditions: percent of substrate being converted; 0.125 mg/ml, 27° C., 16-20 hours; [CYP] per enzyme as in Table 8
Method in brief: as §1

[4] = Metabolism of tofacitinib by P450 aluC09 and mutants; conditions: percent of substrate being converted; 0.125 mg/ml, 27° C., 16-20 hours; [CYP] per enzyme as in Table 8
Method in brief: as §1

[5] = Hydroxylation of diclofenac catalysed by cytochrome P450 aluC09 and mutants (UPLC-PDA-MS); conditions: for 4′,5-dihydroxy-diclofenac 1.38 mins / 4′-hydroxy-diclofenac (1) 1.62 mins / 5-hydroxy-diclofenac (2) 1.58 mins / Diclofenac (Substrate) 1.81 mins: % by UV peak area at 275 nm, 0.125 mg/ml substrate, 27° C., 16-20 hours; for Hydroxylated Ratio hydroxy 1:hydroxy 2: diclofenac, ratio of UV peak areas at 275nm
Method in brief: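 Lyophilised CYP450aluC09 or mutants, with ferredoxin aluF03 and reductase SCF15A, incubated 16-20 hours at 27° C with 0.125 mg/ml diclofenac in 50 mM potassium phosphate pH 7.4, 5 mM MgCl2, and G6P/NADP/G6PDH regeneration. Acetonitrile-extracted; conversion by UPLC-PDA-MS against authentic hydroxylated standards.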

[6] = Metabolism of 4-pyrrolidylacetophenone by P450 aluC09 and mutants; conditions: percent of substrate being converted; 0.125 mg/ml, 27° C., 16-20 hours; [CYP] per enzyme as in Table 8
Method in brief: as §1

[7] = Metabolism of tivantinib by P450 aluC09 and mutants; conditions: percent of substrate being converted; 0.125 mg/ml, 27° C., 16-20 hours; [CYP] per enzyme as in Table 8
Method in brief: as §1

[8] = Metabolism of bosentan by P450 aluC09 and mutants; conditions: percent of substrate being converted; 0.125 mg/ml, 27° C., 16-20 hours; [CYP] per enzyme as in Table 8
Method in brief: as §1

[9] = Metabolism of celecoxib by P450 aluC09 and mutants; conditions: percent of substrate being converted; 0.125 mg/ml, 27° C., 16-20 hours; [CYP] per enzyme as in Table 8
Method in brief: as §1

[10] = Hydroxylation of aceclofenac catalysed by cytochrome P450 aluC09 and mutants; conditions: for Aceclofenac (Substrate) (1.80 mins) / Dihydroxy-Aceclofenac (1.42 mins) / Hydroxy-Aceclofenac (1) (1.64 min) / Hydroxy-Aceclofenac (2) (1.60 min): % by UV peak area at 275 nm, 0.125 mg/ml substrate, 27° C., 16-20 hours; for Hydroxylated Ratio 2:1: aceclofenac, ratio of UV peak areas at 275 nm
Method in brief: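 Conversion was assessed by UPLC-MS (UV and MS detection) after acetonitrile extraction of reactions run 16-20 h at 27° C, shaking. Reactions contained substrate at 0.125 mg/ml, P450 mutant plus ferredoxin and reductase partners, 1 mM NADP with glucose-6-phosphate regeneration, in phosphate buffer pH 7.4.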

[11] = Metabolism of ruxolitinib by P450 aluC09 and mutants; conditions: percent of substrate being converted; 0.125 mg/ml, 27° C., 16-20 hours; [CYP] per enzyme as in Table 8
Method in brief: as §1

[12] = Hydroxylation of flufenamic acid catalysed by cytochrome P450 aluC09 and mutants; conditions: for Flufenamic Acid (Substrate) 1.93 mins / Hydroxy-Flufenamic Acid (1) 1.69 mins / Hydroxy-Flufenamic Acid (2) 1.65 mins: % by UV peak area at 275 nm, 0.125 mg/ml substrate, 27° C., 16-20 hours; for Hydroxylated Ratio 1:2: flufenamic acid, ratio of UV peak areas at 275 nm
Method in brief: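 Lyophilised CYP450aluC09 mutants with ferredoxin aluF03 and reductase SCF15A, in 50 mM potassium phosphate pH 7.4, 5 mM MgCl2, 0.125 mg/ml flufenamic acid, G6P/NADP/G6PDH NADPH regeneration. Shaken 16-20 h at 27° C; acetonitrile-quenched, conversion to two hydroxy products by UPLC-MS.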

[13] = Hydroxylation / de-N-ethylation of napropamide catalysed by cytochrome P450 aluC09 and mutants; conditions: for Desethyl Napropamide (1.62 min) / Desethyl-hydroxy-Napropamide (1.41 min) / Hydroxy-Napropamide (1) (1.53 min) / Hydroxy-Napropamide (2), (1.52 min) / M-2Da (unidentified) (1.89 min) / Napropamide (substrate): % by UV peak area at 275 nm, 0.125 mg/ml substrate, 27° C., 16-20 hours; for Hydroxylated Ratio 2:1: napropamide, ratio of UV peak areas
Method in brief: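 Conversion of napropamide (0.125 mg/ml) to hydroxylated and de-ethylated metabolites was measured by UPLC-MS after acetonitrile extraction. Reactions ran 16-20 h at 27° C in pH 7.4 potassium phosphate (50 mM) with 5 mM MgCl2, 1 mM NADP, 5 mM G6P and 2 UN/ml G6PDH. Enzymes were lyophilised P450 aluC09 variants, ferredoxin aluF03 and ferredoxin reductase SCF15A.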

[14] = O-demethylation of indomethacin catalysed by cytochrome P450 aluC09 and mutants; conditions: % by UV peak area at 275 nm; 0.125 mg/ml substrate, 27° C., 16-20 hours
Method in brief: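 Lyophilised CYP450aluC09 mutants with ferredoxin aluF03 and reductase SCF15A, 0.125 mg/ml substrate, 50 mM potassium phosphate pH 7.4, 5 mM MgCl2, G6P/G6PDH/NADP recycling. Shaken 16-20 h at 27° C. Acetonitrile-quenched, conversion measured by UPLC-MS.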

[15] = Metabolism of ritonavir by P450 aluC09 and mutants; conditions: percent of substrate being converted; 0.125 mg/ml, 27° C., 16-20 hours; [CYP] per enzyme as in Table 8
Method in brief: as §1

[16] = Metabolism of valsartan by P450 aluC09 and mutants; conditions: percent of substrate being converted; 0.125 mg/ml, 27° C., 16-20 hours; [CYP] per enzyme as in Table 8
Method in brief: as §1

B1: aluC09M38: cytochrome P450 aluC09 mutant T291H; amino acid sequence SEQ ID NO: 64 (protein, listed as Amycolatopsis lurida)
chain: MTDVEETTATLPLARKCPFSPPPEYERLRRESPVSRVGLPSGQTAWALTRLEDIREMLSSPHFSSDRQSPSFPLMVARQIRREDKPFRPSLIAMDPPEHSRARRDVVGEFTVKRMKALQPRIQQIVDEHLDALLAGPKPADLVQALSLPVPSLVICELLGVPYSDHEFFQSCSSRMLSREVTAEERMTAFEQLENYLDELVTKKEANATEDDLLGRQILKQRETGEADHGELVGLAFLLLIAGHETTANMISLGTVTLLENPDQLAKIKADPGKTLAAIEELLRVFTIAEHATSRFATADVEIGGTLIRAGEGVVGLSNAGNHDPDGFENPDTFDIERGARHHVAFGFGVHQCLGQNLARLELQIVFDTLFRRVPGLRIAVPVDELPFKHDSTIYGLHALPVTW
- % conversions (avg) Epothilone B [1]: 13.4%
- % conversions (avg) BIRB796 [2]: 13.6%
- % conversions (avg) Buparvaquone [3]: 4.1%
- % conversions (avg) Tofacitinib [4]: 0.7%
- 4′,5-dihydroxy-diclofenac 1.38 mins [5]: 2.9%
- 4′-hydroxy-diclofenac (1) 1.62 mins [5]: 44.5%
- 5-hydroxy-diclofenac (2) 1.58 mins [5]: 18.9%
- Diclofenac (Substrate) 1.81 mins [5]: 35.6%
- Hydroxylated Ratio hydroxy 1:hydroxy 2 [5]: 2.4
- % conversions (avg) 4-pyrrolidylacetophenone [6]: 2.9%
- % conversions (avg) Tivantinib [7]: 27.6%
- % conversions (avg) Bosentan [8]: 98.7%
- % conversions (avg) Celecoxib [9]: 2.3%
- Aceclofenac (Substrate) (1.80 mins) [10]: 29.8%
- Dihydroxy-Aceclofenac (1.42 mins) [10]: 28.9%
- Hydroxy-Aceclofenac (1) (1.64 min) [10]: 11.9%
- Hydroxy-Aceclofenac (2) (1.60 min) [10]: 29.4%
- Hydroxylated Ratio 2:1 [10]: 2.5
- % conversions (avg) Ruxolitinib [11]: 30.8%
- Flufenamic Acid (Substrate) 1.93 mins [12]: 95.3%
- Hydroxy-Flufenamic Acid (1) 1.69 mins [12]: 2.9%
- Hydroxy-Flufenamic Acid (2) 1.65 mins [12]: 1.8%
- Hydroxylated Ratio 1:2 [12]: 1.6
- Desethyl Napropamide (1.62 min) [13]: 45.6%
- Desethyl-hydroxy-Napropamide (1.41 min) [13]: 3.8%
- Hydroxy-Napropamide (1) (1.53 min) [13]: 1.0%
- Hydroxy-Napropamide (2), (1.52 min) [13]: 3.9%
- M-2Da (unidentified) (1.89 min) [13]: 6.2%
- Napropamide (substrate) [13]: 41.1%
- Hydroxylated Ratio 2:1 [13]: 3.9
- Indomethacin (1.74 mins) [14]: 83.8%
- O-demethyl-Indomethacin (1.52 mins) [14]: 16.2%
- % conversions (avg) Ritonavir [15]: 64.2%
- % conversions (avg) Valsartan [16]: 61.9%

B2: aluC09: wild-type cytochrome P450 aluC09 from Amycolatopsis lurida NRRL-2430; amino acid sequence SEQ ID NO: 2 (protein, listed as Amycolatopsis lurida)
chain: MTDVEETTATLPLARKCPFSPPPEYERLRRESPVSRVGLPSGQTAWALTRLEDIREMLSSPHFSSDRQSPSFPLMVARQIRREDKPFRPSLIAMDPPEHSRARRDVVGEFTVKRMKALQPRIQQIVDEHLDALLAGPKPADLVQALSLPVPSLVICELLGVPYSDHEFFQSCSSRMLSREVTAEERMTAFEQLENYLDELVTKKEANATEDDLLGRQILKQRETGEADHGELVGLAFLLLIAGHETTANMISLGTVTLLENPDQLAKIKADPGKTLAAIEELLRVFTIAETATSRFATADVEIGGTLIRAGEGVVGLSNAGNHDPDGFENPDTFDIERGARHHVAFGFGVHQCLGQNLARLELQIVFDTLFRRVPGLRIAVPVDELPFKHDSTIYGLHALPVTW
- % conversions (avg) Epothilone B [1]: 18.4%
- % conversions (avg) BIRB796 [2]: 13.4%
- % conversions (avg) Buparvaquone [3]: 14%
- % conversions (avg) Tofacitinib [4]: 1.4%
- 4′,5-dihydroxy-diclofenac 1.38 mins [5]: 3.1%
- 4′-hydroxy-diclofenac (1) 1.62 mins [5]: 27.0%
- 5-hydroxy-diclofenac (2) 1.58 mins [5]: 26.2%
- Diclofenac (Substrate) 1.81 mins [5]: 45.2%
- Hydroxylated Ratio hydroxy 1:hydroxy 2 [5]: 1.0
- % conversions (avg) 4-pyrrolidylacetophenone [6]: 5.6%
- % conversions (avg) Tivantinib [7]: 41.4%
- % conversions (avg) Bosentan [8]: 98.8%
- % conversions (avg) Celecoxib [9]: 2.5%
- Aceclofenac (Substrate) (1.80 mins) [10]: 18.0%
- Dihydroxy-Aceclofenac (1.42 mins) [10]: 36.5%
- Hydroxy-Aceclofenac (1) (1.64 min) [10]: 5.7%
- Hydroxy-Aceclofenac (2) (1.60 min) [10]: 39.8%
- Hydroxylated Ratio 2:1 [10]: 7.0
- % conversions (avg) Ruxolitinib [11]: 46.6%
- Flufenamic Acid (Substrate) 1.93 mins [12]: 93.1%
- Hydroxy-Flufenamic Acid (1) 1.69 mins [12]: 4.5%
- Hydroxy-Flufenamic Acid (2) 1.65 mins [12]: 2.4%
- Hydroxylated Ratio 1:2 [12]: 1.9
- Desethyl Napropamide (1.62 min) [13]: 44.8%
- Desethyl-hydroxy-Napropamide (1.41 min) [13]: 5.4%
- Hydroxy-Napropamide (1) (1.53 min) [13]: 2.0%
- Hydroxy-Napropamide (2), (1.52 min) [13]: 4.0%
- M-2Da (unidentified) (1.89 min) [13]: 6.6%
- Napropamide (substrate) [13]: 39.3%
- Hydroxylated Ratio 2:1 [13]: 2.1
- Indomethacin (1.74 mins) [14]: 83.6%
- O-demethyl-Indomethacin (1.52 mins) [14]: 16.4%
- % conversions (avg) Ritonavir [15]: 59.6%
- % conversions (avg) Valsartan [16]: 28.9%

From patent US11618906B2, “Hydroxylation techniques” (HYPHA DISCOVERY LTD., priority 2018, dated 2023)
